Test results reported in the supplement of paper PMC5998384.

Columns and labels:
[1] = test system: HeLa Kyoto; assay: melting temperature (median over replicates), in situ; higher = more thermally stable
[2] = test system: HeLa Kyoto; assay: solubility change mitosis vs G1/S (difference of NP-40 vs SDS log2 ratios) (log2 ratio difference); higher = more soluble in mitosis
[3] = test system: HeLa Kyoto; assay: solubility in G1/S (NP-40 vs SDS abundance) (log2 ratio); higher = more soluble; settings: cell cycle stage: G1/S
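For melting temperature (median over replicates), in situ in this document: HeLa Kyoto cells synchronized by double thymidine or nocodazole block, proteins quantified by TMT10plex mass spectrometry, three independent biological replicates.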
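For solubility change mitosis vs G1/S (difference of NP-40 vs SDS log2 ratios) in this document: synchronized HeLa Kyoto cells (double thymidine block for G1/S, nocodazole release for mitosis), protein amounts in NP-40 versus SDS lysates quantified by mass spectrometry, three biological replicates.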
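For solubility in G1/S (NP-40 vs SDS abundance) in this document: HeLa Kyoto cells arrested at G1/S by double thymidine block, proteins quantified by TMT10plex mass spectrometry in mild NP-40 versus SDS extracts, three biological replicates.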

**Q.** How did the melting temperature ([1]; cell cycle stage: G1/S) turn out when “MAAEEKDPLSYFAAYGSSSSGSSDEEDNIEPEETSRRTPDPAKSAGGCRNKAEKRLPGPDELFRSVTRPAFLYNPLNKQIDWERHVVKAPEEPPKEFKIWKSNYVPPPETYTTEKKPPPPELDMAIKWSNIYEDNGDDAPQNAKKARLLPEGEETLESDDEKDEHTSKKRKVEPGEPAKKKK [C1ORF52]” was run?
**A.** The melting temperature was 54.3 °C.

**Q.** What about the melting temperature ([1]; cell cycle stage: mitosis) of the same sequence?
**A.** The melting temperature was 52.5 °C.

**Q.** What about the “solubility change mitosis (log2)” value [2] of the same sequence?
**A.** Its value is 0.413.

**Q.** What about the “solubility in G1/S (log2)” value [3] of the same sequence?
**A.** The value was 0.074.

**Q.** With “MAAGERSWCLCKLLRFFYSLFFPGLIVCGTLCVCLVIVLWGIRLLLQRKKKLVSTSKNGKNQMVIAFFHPYCNAGGGGERVLWCALRALQKKYPEAVYVVYTGDVNVNGQQILEGAFRRFNIRLIHPVQFVFLRKRYLVEDSLYPHFTLLGQSLGSIFLGWEALMQCVPDVYIDSMGYAFTLPLFKYIGGCQVGSYVHYPTISTDMLSVVKNQNIGFNNAAFITRNPFLSKVKLIYYYLFAFIYGLVGSCSDVVMVNSSWTLNHILSLWKVGNCTNIVYPPCDVQTFLDIPLHEKKMTPGHLLVSVGQFRPEKNHPLQIRAFAKLLNKKMVESPPSLKLVLIGGCRNKDDELRVNQLRRLSEDLGVQEYVEFKINIPFDELKNYLSEATIGLHTMWNEHFGIGVVECMAAGTIILAHNSGGPKLDIVVPHEGDITGFLAESEEDYAETIAHILSMSAEKRLQIRKSARASVSRFSDQEFEVTFLSSVEKLFK [ALG11]” as the sequence, how does the melting temperature ([1]; cell cycle stage: mitosis) read?
**A.** Its melting temperature is 52.4 °C.

**Q.** What about the “solubility change mitosis (log2)” value [2] of the same sequence?
**A.** The value was -0.199.

**Q.** And the “solubility in G1/S (log2)” value [3]?
**A.** The value was 0.114.

**Q.** How did the melting temperature ([1]; cell cycle stage: G1/S) turn out when “MAAPSEVAAIAPGEGDGGGGGFGSWLDGRLEALGVDRAVYGAYILGILQEEEEEEKLDALQGILSAFLEEDSLLNICKEIVERWSETQNVVTKVKKEDEVQAIATLIEKQAQIVVKPRMVSEEEKQRKAALLAQYADVTDEEDEADEKDDSGATTMNIGSDKLLFRNTNVEDVLNARKLERDSLRDESQRKKEQDKLQRERDKLAKQERKEKEKKRTQRGERKR [CCDC43]” was run?
**A.** Its melting temperature is 53.8 °C.

**Q.** And the melting temperature ([1]; cell cycle stage: mitosis)?
**A.** Its melting temperature is 53.7 °C.

**Q.** What about the “solubility change mitosis (log2)” value [2] of the same sequence?
**A.** The value was 0.216.

**Q.** And the “solubility in G1/S (log2)” value [3]?
**A.** Its value is 0.483.

**Q.** What does the source list for “MAAPWASLRLVAPMWNGRIRGIHRLGAAVAPEGNQKKKRTILQFLTNYFYDVEALRDYLLQREMYKVHEKNRSYTWLEKQHGPYGAGAFFILKQGGAVKFRDKEWIRPDKYGHFSQEFWNFCEVPVEAVDAGDCDINYEGLDNLLRLKELQSLSLQRCCHVDDWCLSRLYPLADSLQELSLAGCPRISERGLACLHHLQNLRRLDISDLPAVSNPGLTQILVEEMLPNCEVVGVDWAEGLKSGPEEQPRDTASPVPA [ATP5SL]”?
**A.** melting temperature ([1]; cell cycle stage: G1/S): 52.9 °C; melting temperature ([1]; cell cycle stage: mitosis): 52 °C; solubility change mitosis (log2) [2]: -0.0178; solubility in G1/S (log2) [3]: 0.174

**Q.** “MADDFGFFSSSESGAPEAAEEDPAAAFLAQQESEIAGIENDEGFGAPAGSHAAPAQPGPTSGAGSEDMGTTVNGDVFQEANGPADGYAAIAQADRLTQEPESIRKWREEQRKRLQELDAASKVTEQEWREKAKKDLEEWNQRQSEQVEKNKINNRIADKAFYQQPDADIIGYVASEEAFVKESKEETPGTEWEKVAQLCDFNPKSSKQCKDVSRLRSVLMSLKQTPLSR [CLTB]” was tested. Which melting temperature ([1]; cell cycle stage: G1/S) did it give?
**A.** The melting temperature was 56.3 °C.

**Q.** And the melting temperature ([1]; cell cycle stage: mitosis)?
**A.** The melting temperature was 53.3 °C.

**Q.** And the “solubility change mitosis (log2)” value [2]?
**A.** Its value is 0.651.

**Q.** What about the “solubility in G1/S (log2)” value [3] of the same sequence?
**A.** The value was 0.159.

**Q.** For “MADEATRRVVSEIPVLKTNAGPRDRELWVQRLKEEYQSLIRYVENNKNADNDWFRLESNKEGTRWFGKCWYIHDLLKYEFDIEFDIPITYPTTAPEIAVPELDGKTAKMYRGGKICLTDHFKPLWARNVPKFGLAHLMALGLGPWLAVEIPDLIQKGVIQHKEKCNQ [UFC1]”, which melting temperature ([1]; cell cycle stage: G1/S) is on record?
**A.** Its melting temperature is 53.3 °C.

**Q.** And the melting temperature ([1]; cell cycle stage: mitosis)?
**A.** Its melting temperature is 52.9 °C.

**Q.** What about the “solubility change mitosis (log2)” value [2] of the same sequence?
**A.** Its value is 0.23.

**Q.** What about the “solubility in G1/S (log2)” value [3] of the same sequence?
**A.** Its value is 0.134.

**Q.** Which melting temperature ([1]; cell cycle stage: G1/S) does the source give for “MADQRQRSLSTSGESLYHVLGLDKNATSDDIKKSYRKLALKYHPDKNPDNPEAADKFKEINNAHAILTDATKRNIYDKYGSLGLYVAEQFGEENVNTYFVLSSWWAKALFVFCGLLTCCYCCCCLCCCFNCCCGKCKPKAPEGEETEFYVSPEDLEAQLQSDEREATDTPIVIQPASATETTQLTADSHPSYHTDGFN [DNAJC5]” here?
**A.** Its melting temperature is 56 °C.

**Q.** And the melting temperature ([1]; cell cycle stage: mitosis)?
**A.** The melting temperature was 53.5 °C.

**Q.** And the “solubility change mitosis (log2)” value [2]?
**A.** Its value is -0.273.

**Q.** And the “solubility in G1/S (log2)” value [3]?
**A.** Its value is 0.0289.

**Q.** How did the melting temperature ([1]; cell cycle stage: G1/S) turn out when “MAEPSVESSSPGGSATSDDHEFDPSADMLVHDFDDERTLEEEEMMEGETNFSSEIEDLAREGDMPIHELLSLYGYGSTVRLPEEDEEEEEEEEEGEDDEDADNDDNSGCSGENKEENIKDSSGQEDETQSSNDDPSQSVASQDAQEIIRPRRCKYFDTNSEVEEESEEDEDYIPSEDWKKEIMVGSMFQAEIPVGICRYKENEKVYENDDQLLWDPEYLPEDKVIIFLKDASRRTGDEKGVEAIPEGSHIKDNEQALYELVKCNFDTEEALRRLRFNVKAAREELSVWTEEECRNFEQGLKAYGKDFHLIQANKVRTRSVGECVAFYYMWKKSERYDFFAQQTRFGKKKYNLHPGVTDYMDRLLDESESAASSRAPSPPPTASNSSNSQSEKEDGTVSTANQNGVSSNGPGEILNKEEVKVEGLHINGPTGGNKKPLHADMDTNGYETDNLTTDPKLAHMTARNENDFDEKSERPAKRRRVNSNGKESPGSSEFFQEAVSHGKFEELENTDD [MIER1]” was run?
**A.** Its melting temperature is 53.4 °C.

**Q.** And the melting temperature ([1]; cell cycle stage: mitosis)?
**A.** Its melting temperature is 52.2 °C.

**Q.** And the “solubility change mitosis (log2)” value [2]?
**A.** The value was -0.0394.

**Q.** And the “solubility in G1/S (log2)” value [3]?
**A.** The value was 0.00102.
